# From patent US20020155114A1 (published 2002)
# B1: scFv 1F3 (scFv)
# scFv: EVQLQQSGAELVKPGASVKLSCKASGYTFTSFWMHWVKQAPGRGLEWIGRLDPNSGETKYNEKFKSKATLTVDKPSSTAYMELSSLTSEDSAVYYCAREAYGYWNFDVWGTGTTVTVSSGGGGSGGGGSGGGGSDIELTQSPASMSASPGEKVTMTCRATSSVSSSYLHWYQQKSGASPKLWIYSASNLASGVPSRFSGSGSGTSYSLTISSVEAEDAATYYCQQYIGYPYTFGGGTKLEIKR
# B2: scFv C25 (scFv)
# scFv: QVQLQESGGGLVKPGGSLKLSCAASGFTFSDYYMYWVRQTPEKRLEWVATISDGGSYTYYPDSVKGRFTISRDNAKNNLYLQMSSLKSEDTAMYYCSRYRYDDAMDYWGQGTTVTVSSGGGGSGGGGSGGGGSDIELTQSPASLAVSLGQRATISCRASESVDSYGHSFMQWYQQKPGQPPKLLIYRASNLEPGIPARFSGSGSGTDFTLTINPVEADDVATYYCQQSNEDPFTFGSGTKLEIKR
# B3: scFv 1C6 (scFv)
# scFv: QIQLLQSGGGVVQPGRSLRLSCAASGFTFSSYAMHWVRQAPGKGLEWVAVISYDGSNKYYADSVKGRFTISRDNSKNTLYLQMNSLRAEDTAVYYCARDWSEGYYYYGMDVWGQGTTVIVSSGGGGSGGGGSGGGGSDIELTQSPASLAVSLGRRATTSCRASESVEYYGTSLMQWYQQKPGQPPKLLIYAASNVESGVPARFSGSGSGTDFSLNIHPVEEEDIAMYFCQQSRKVPWTFGGGTKLEIKR
# B4: scFv S25 (scFv)
# scFv: QVKLQQSGAELVRPGASVKLSCKASGYSLTSYWMNWVKQRPGQGLEWIGMIHPSDSDTRFNQKFEDKATLTVDTSSSTAYMQLSSPTSEDSAVYYCARGLYNGFWYFDVWGQGTTVTVSSGGGGSGGGGSGGGGSDIELTQSPALMAASPGEKVIITCSVSSSISSSNLHWYQQKSGTSPKPWIYGTSNLASGVPVRFSGSGSGTSYSLTISSMEAEDAATYYCQQWSSYPLTFGAGTKLEIKR
# Assays:
# [1] = target: T1, BoNT/A Hc (C-terminal domain of botulinum neurotoxin type A heavy chain, binding domain) (Clostridium botulinum (type A serotype), UniProt P0DPI0 860-1296); assay: SPR (BIAcore), BoNT/A Hc coupled to CM5 chip, purified scFv in flow
# [2] = target: T1, BoNT/A Hc (C-terminal domain of …)
# [3] = target: botulinum neurotoxin type A (BoNT/A), pure holotoxin (Clostridium botulinum (type A serotype), UniProt P0DPI0 2-1296); assay: cell-based or functional assay
# Sequence of botulinum neurotoxin type A (BoNT/A), pure holotoxin (P0DPI0 2-1296 limits assumed): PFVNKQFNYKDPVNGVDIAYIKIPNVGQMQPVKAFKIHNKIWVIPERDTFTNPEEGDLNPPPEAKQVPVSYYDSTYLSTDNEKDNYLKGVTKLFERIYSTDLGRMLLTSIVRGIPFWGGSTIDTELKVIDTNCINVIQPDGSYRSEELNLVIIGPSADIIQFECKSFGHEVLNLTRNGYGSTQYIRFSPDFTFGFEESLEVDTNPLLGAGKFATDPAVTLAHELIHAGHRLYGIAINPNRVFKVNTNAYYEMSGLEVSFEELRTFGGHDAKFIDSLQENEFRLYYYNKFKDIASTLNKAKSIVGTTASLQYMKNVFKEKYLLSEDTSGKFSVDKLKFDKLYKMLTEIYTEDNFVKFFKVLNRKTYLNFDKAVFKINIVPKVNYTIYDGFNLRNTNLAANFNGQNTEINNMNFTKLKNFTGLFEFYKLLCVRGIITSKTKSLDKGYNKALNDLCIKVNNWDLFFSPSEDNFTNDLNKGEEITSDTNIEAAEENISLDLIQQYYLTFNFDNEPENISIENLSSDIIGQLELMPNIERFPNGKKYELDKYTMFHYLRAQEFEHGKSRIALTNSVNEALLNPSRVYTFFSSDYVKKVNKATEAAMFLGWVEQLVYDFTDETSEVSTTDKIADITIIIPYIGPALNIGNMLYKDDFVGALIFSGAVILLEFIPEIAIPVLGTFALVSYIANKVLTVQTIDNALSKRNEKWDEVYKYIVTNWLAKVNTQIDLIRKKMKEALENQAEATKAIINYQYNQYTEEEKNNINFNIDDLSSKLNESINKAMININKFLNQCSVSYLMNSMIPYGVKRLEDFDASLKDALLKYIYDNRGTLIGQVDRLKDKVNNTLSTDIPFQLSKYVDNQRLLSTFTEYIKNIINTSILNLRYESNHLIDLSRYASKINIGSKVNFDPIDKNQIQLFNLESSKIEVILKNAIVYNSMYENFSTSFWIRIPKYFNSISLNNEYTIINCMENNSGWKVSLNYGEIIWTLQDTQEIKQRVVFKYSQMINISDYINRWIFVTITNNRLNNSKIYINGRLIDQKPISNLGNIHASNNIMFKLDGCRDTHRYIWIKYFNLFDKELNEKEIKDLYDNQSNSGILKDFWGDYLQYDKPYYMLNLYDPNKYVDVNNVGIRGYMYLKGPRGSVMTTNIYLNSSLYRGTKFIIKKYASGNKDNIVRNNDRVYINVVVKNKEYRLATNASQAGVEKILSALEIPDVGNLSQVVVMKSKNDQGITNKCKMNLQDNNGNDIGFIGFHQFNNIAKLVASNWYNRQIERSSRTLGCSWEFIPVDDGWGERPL
# T1 sequence (P0DPI0 860-1296): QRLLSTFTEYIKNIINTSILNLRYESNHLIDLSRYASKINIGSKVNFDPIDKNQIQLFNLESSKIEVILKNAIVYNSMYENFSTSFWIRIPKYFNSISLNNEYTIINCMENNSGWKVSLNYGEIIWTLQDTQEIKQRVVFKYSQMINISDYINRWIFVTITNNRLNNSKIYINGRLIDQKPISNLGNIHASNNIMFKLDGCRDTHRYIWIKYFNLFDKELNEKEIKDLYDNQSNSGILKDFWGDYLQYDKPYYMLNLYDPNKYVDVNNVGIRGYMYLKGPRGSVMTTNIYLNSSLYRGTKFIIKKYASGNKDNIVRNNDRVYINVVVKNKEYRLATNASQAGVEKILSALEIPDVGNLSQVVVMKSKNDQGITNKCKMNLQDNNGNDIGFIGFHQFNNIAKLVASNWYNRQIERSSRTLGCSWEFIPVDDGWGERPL
Binder,koff [1] [s⁻¹],kon [1] [M⁻¹ s⁻¹],Kd [2] [nM],prolongation of the time to neuroparalysis (against BoNT/A alone) [3] [fold]
B1,0.011,920000,12,
B2,,,,2.7
B3,0.0025,130000,20,
B4,0.00082,11000,73,1.5
